# Measurements reported in the DeepSol protein solubility set.
# Test: soluble on expression in E. coli; label from the status in PepcDB or PDB records
row,Sequence,soluble on expression in E. coli
1,MFIDTSELCDLYAEQVDVVEPIFSSFGGVSNFYGKVTTVKCFESNGLIAEVLEENGEGRVLVIDGGGAVRRGLIDAELAQLAVDNGWEGIIVYGAVRQIQQLENLDIGIHALAPIPVSADESSAGESDIPVNFGGVTFFPEDYIYADLTGIILSQEPLDLEDLEHHHHHH,not soluble
2,MTKNTRFSPEVRQRAVRMVLESQGEYDSQWATICSIAPKIGCTPETLRVWGLRQHERDTGGGDGGLTTAERQRLKEPERENRELRRSNDILRQASAYFAKAEFDRLWKKLEHHHHHH,not soluble
3,MSLNGDYQLTIDKMLESGVSSNPNQIINYSGKKTFTYKEFRERVYRLAKALISIGVKKGDTVAVIDWDTYVYLEAYFAVPMIGAVLHTVNVRYPQDLIYYTMDHAEDKYVIVRDEFVPILSKNKEAFYFIKGWIIYSEYGNVPDELSPKYIYDELMSKNYDIELPEISENDLATTFYTSGTTGIPKGVQFTHRQIVLHAISSGLALSDRPISLTADDVIMPLVPMFHVHAWGVPYMTIMSGRQYVLPGRYDFDHIIDLIAQENITVIAMVPSILYMIVTNPNVGKIAGRKIRAIIGGGALPEGLQKAAEKLGIMAISGYGLSETAPILTLATYNSDVKKLPLEEQKKYHLKTGIPIPLVQLRVIDDKWNDVPRDEKTIGEIVVRAPWLTSVYVKNKEGTEALWKGGWMHTGDLAVMDKFGYIKIVDREKDAVKSGGEFIPSLILEDAISACPGVVENAVVGKPHEKWGERPVAFYTGTAKPEEIRKCLEDIVRQGRIAKFWIPDDFINVKEFVKTSTGKIDKKVLREMLKKEGHHHHHH,soluble
4,MSMQEMVTISIVTYNSRYIFNVLDQLKAELGTDSIYDIHIYDNHSETAYLEKLTTYEPFITIHRAEENQGFGHGHNQVLFNASTKYAIIFNPDVLVTKDVLDRLLNRIKIDKNIAVVSPKVLNEDGTTQYLVRQKLDVFDYMLRFIPFQFVKKIFDKRLSIYECRDLSDTETTDIKMGSGCFMLIDREKFVEIGGFDERFFMYFEDNDLCLRFGKAGYRILYTPFETVVHMYEKGAHKSRKLFKIFMQSMGKFFNKWGWRFFLEHHHHHH,soluble
5,NTDELMRAVQPRVNPKLLYVIASTLRLYPLAKARLEIIRQTHITRGIDVHSIRGRWGLVLPLVVGLVDNAAQRARPLQRTGIGHSGPRTVLRPVPVMTHDVIIQVLAVCTTIAVCIWSIF,not soluble
6,MLTDPIADMLTRIRNATRVYKESTDVPASRFKEEILRILAREGFIKGYERVDVDGKPYLRVYLKYGPRRQGPDPRPEQVIHHIRRISKPGRRVYVGVKEIPRVRRGLGIAILSTSKGVLTDREARKLGVGGELICEVW,soluble
7,IGDWGYSVSANLTTISNKVKSLVQDGYSIIAGDKSQSYTMAGYPIGYFYGYKVAGVYQNQAEIDASPVNTLATVTPGDLKFADVNGDGKITPDDRTKIGDPTPDVTYGISLGLSYKNWELSMEMMGQGGNQIYRTWDNYNWAQFNYMEQRLDRWHGEGTSNTQPLLNTKHAINSENSEYFIEDGSFFRIRNLQLAYSFDKTLLSKIRMQALKVYVNIQNLKTWKHNTGYTPEIGGSAIAFGVDNGTYPVPAVYTFGINLTF,not soluble
8,MALPRITQKEMTEREQRELKTLLDRARIAHGRPLTNSETNSVKKEYIDKLMALREAEAKKARQLKKKQAYKPDTEASFSWSANTPTRGRR,not soluble
9,MGSDKIHHHHHHMQPLLQLQGITKSFPGVKALSGAALNVYPGKVMALVGENGAGKSTMMKVLTGIYRKDAGSIHFLGQEVDFNGPKASQEAGIGIIHQELNLIPQLTIAENIFLGREFTNRFGRIDWNKMYAEADKLLKRLNLRYDSRRMVGDLSIGDQQMVEIAKVLSFESKVIIMDEPTDALTDTETASLFSVINELQSQGCGIVYISHRLKEIFEICDDITVFRDGQFIGERPVSDLEEDTLIEMMVGRKLEDQYPRSNKAPGEVRLKVQNLSGPGVDSVSFTVRKGEILGVAGLMGAGRTELMKILYGALPRTGGNVTLDGRDVVTRKPQDGLANGIVYISEDRKRDGLVLGMSVKENMSLTALRYFSHAGGRLKHAEEQLTVADFIRLFNVKTPSMEQPIGLLSGGNQQKVAIARGLMTRPNVLILDEPTRGVDVGAKKEIYQLINQFKEEGLSIILVSSEMPEVLGMSDRIIVMHEGRLSGDFPIEQATQEALMAAAVGKQYGAKQE,not soluble
10,MGSDKIHHHHHHMELLECVEHVIKTRRSHRLYLDKPVEREKLEKMIELAMWAPSAMNRQQWFFVVVAGKRLKEMIGIVEKGYEHILPRLQRFFAETPKVIEQTRRFFKSLGNAPAAVFAYYTPTGDDYSDVQSVSAAIQNMLLAAHAMGLGTCWMTGPVHVEEEINKALGVEGKKLVAVITVGYPAKQPPVPPRRDSEKKVVWMLD,not soluble
